Reference: publication PMC6978647
Like-named read-outs stand apart in the source and are kept apart here.

Key:
[1] = target: aeBlue chromoprotein (Actinia equina); test: SEC
[2] = target: aeBlue chromoprotein (Actinia equina); test: SEC; remark: listed apart in the source

What does the source list for aeBlue chromoprotein (natural protein)?
stoichiometry N [1]: 4.45 subunits; stoichiometry N [2]: 3.84 subunits
